In the nanobody polyreactivity screen of Harvey et al. (2022):

Assay: yeast display, Sf9 membrane polyspecificity reagent, FACS + sequencing; frameworks hold sequencing errors
Summary of the method: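 Polyreactivity labels are assigned by the sorting gate from which each nanobody was recovered. The gates were low and high (top ~1%), set on anti-HA fluorescence for expression and streptavidin fluorescence for reagent binding. Before sorting, galactose-induced (36–48 hours) yeast display cells were stained for 1 hour at 4 °C with 10% biotinylated, detergent-solubilized Sf9 membrane reagent.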

| Sequence | polyreactivity (PSR sort gate) |
| --- | --- |
| KVQLVESGGGLVQAGGRLRLSCAASGGTFVINVMGWYRQAPGKERELVAAISWNGDSTYYADSVKGRFTISRDNAKNTVYLQMNSLKPEDTAVYYCATDTWRVYYAYWQFGVWELGYWGQGTQVTVSS | low polyreactivity |
| KVQLVESGGGLVQAGGSLRFSCAPSGSIFSGNTMGWYRQAPGKEREMVAAITRSGDTTYYADSVKGRFTISRDYAKNTVYLQMNSLKPEDTAFYYCAAALPRYRSRAIRVEFWGQGSQVTVSS | high polyreactivity |
| KVQLVESGGGLVQAGGSLRISCAASGRICWGYVMGWYRQAPGKERELVAAISSGGDTHYADSVKGRFTISRDNAKNTVYLQMNSLKPEDTGVYYCAARPNFTPYEYGYWGQGTQVTVSS | low polyreactivity |
| KVQLVESGGGLVQAGGSLRISCAASGSTLYRYAMGWYRQAPGKERELVAAISSSGGSTYYADSVKGRFTISRDNAKNTVYLQMNSLKPEDTAVYYCARVAPASGVRWYYYWGQGTQVTVSS | high polyreactivity |
| KVQLVESGGGLVQAGGSLRLSCAASGFTFRSYAMGWYRQAPGKERDFVAAITINGGSTYYADSVKGRFTISRDNAKNTVYLQMNSLKPEDTAVYYCAAGTLYRIRGYPLWQYDYWGQGTQVTVSS | high polyreactivity |
| KVQLVESGGGLVQAGGSLRLSCAASGGTFYRYAMGWYRQAPGKERELVAAITSGSSTYYADSVKGRFTISRDNAKNTVYLQMNSLKPEDTAVYYCAAARYSRLSRTRPGKYGYWGQGTQVTVSS | low polyreactivity |
| KVQLVESGGGLVQAGGSLRLSCAASGNIFIPYAMGWYRQAPGKEREFVAVISTRGGSTYYADSLKGRFTISRDNAKNTVYLQMNSLKPEYTAVYYCAAGALGPRIKGWWFRRSFFYWGQGTQVTVSS | high polyreactivity |
| KVQLVESGGGLVQAGGSLRLSCAASGRIFVGYAMGWYRQAPGKERELVAAINRSGSSTYYADSVKGRFTISRYNAKNTVYLQMNSLKPEDTAVYYCNARSGKRYGPRYDYWGQGTQVNVSS | high polyreactivity |
| KVQLVESGGGLVQAGGSLRLSCAASGSIFPSYVMGWYRQAPGKERELVAAITKSTGTTYYADSVKGRFTISRDNAKNTVYLQMNSLKPEDTAVYYCNAPYWFSPGYGGFEFGYDYWGQGTQVTVSS | low polyreactivity |
| KVQLVESGGGLVQAGGSLRLSCAASGSIISGNAMGWYRQAPGKERELVAAISRSGGRTYYADSVKGRFTISRDNAKNTVYLQMNSLKPEDTAVYFCAAGRSLRGDYWGQGTQVTVSS | high polyreactivity |
| KVQLVESGGGLVQAGGSLRLSCAASGSISANYAMGWYRQAPGKERELVAAISRRGASTYYADSVKGRFTISRDNAKNTVYLQMNSLKPEDTAVYYCNAKKYHVPGVDYWGQGTQVTVSS | high polyreactivity |
| KVQLVESGGGLVQAGGSLRLSCAASGSTFSLYTLGGYRQAPGTERELVAAITNGGSTKYADSVKGRFTISRDNAKNTDYFQMNSLKPEDTAVYYCAALYSHYYWIEYDYWGQGTQVTVST | low polyreactivity |
| KVQLVESGGGLVQAGGSLRLSCAASGSTFYQYAMGWYRQAPGKERELVAVITGSGGSTYYADSVKGRFTISRDNAKNTVYLQMNSLKPEDTAVYYCAAGARYFKYRTTSLGGNYWGQGTQVTVSS | high polyreactivity |
| KVQLVESGGGLVQAGGSLRLSCDASGSTFQYYTMGWYRQAPGKESELVAAISADGGNTYYADSVKGRFTISRDNAKNTVYLQMNSLKPEDTAVYYCNADVSLTLRTLVPGRAYDYWGQGTQVTVSS | low polyreactivity |
| KVQLVESGGGLVQAGGTLRLSCAASGSTFTPYAMVWYRQAPGKERELVAAIWIGGNTYYADSVKGRFTISRDNAKNTVYLQMNSLKPEDTAVYYCATENVDPDHYYDWGYDYWGQGTQVTVSS | low polyreactivity |
| KVQLVESGGVLVQEGGRLRLSCAASGRTFQLNAMGWYRQAPGKEMELVAAISTRGGSTYYADSVKGRFTISRDNAKNSVYLQMNSLKPEDTAGYYCAKDPSFTRGYKEGGGYDYWGQGTQVTVSS | high polyreactivity |
| KVQLVESRGGLVQAGGSLRLSCAASGRTFIRYAMGWYRQAHGKEREFVAAITWSGGSTYYADSVKGRFTISRDNAKNTVYLQMNSLKPEDTAVYYCAKYPAARAVDYWGQGSQVTVSS | high polyreactivity |
